Data on two molecules can be found in US20200317768A1 (published 2020).

Changes are numbered by the printed parent chain.

Assay [1] concerns the target T1, soluble mouse FcγRII, His-tagged (mouse, UniProt P08101 30-210, limits assumed).
T1 construct: Captured on the chip by an anti-His antibody
T1 sequence (looked up): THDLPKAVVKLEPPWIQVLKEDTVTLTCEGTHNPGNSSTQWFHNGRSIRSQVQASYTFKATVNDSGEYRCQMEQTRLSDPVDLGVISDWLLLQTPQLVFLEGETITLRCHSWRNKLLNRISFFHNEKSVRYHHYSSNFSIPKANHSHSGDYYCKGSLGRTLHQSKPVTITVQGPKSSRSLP
The assay can be described thus: SPR, mouse FcgRII-His captured, antigen-antibody complex injected, pH7.4, 25C. As for the experimental part:
Regarding the produced Fc region variant-containing antibodies, binding assays between soluble mouse FcγRII and antigen-antibody complexes were performed using BIACORE® T200 (GE Healthcare). Soluble mouse FcγRII was produced in the form of a His-tagged molecule by a method known to those skilled in the art. An appropriate amount of an anti-His antibody was fixed onto Sensor chip CM5 (GE Healthcare) by the amine coupling method using a His capture kit (GE Healthcare) to capture mouse FcγRII. Next, an antibody-antigen complex and a running buffer (as a reference solution) were injected, and interaction was allowed to take place with the mouse FcγRII captured onto the sensor chip. 20 mM N-(2-Acetamido)-2-aminoethanesulfonic acid, 150 mM NaCl, 1.2 mM CaCl₂, and 0.05% (w/v) TWEEN, 20 at pH7.4 was used as the running buffer, and the respective buffer was also used to dilute the soluble mouse FcγRII. To regenerate the sensor chip, 10 mM glycine-HCl at pH1.5 was used. All measurements were carried out at 25° C. […] To calculate the parameters, the BIACORE® T100 Evaluation Software (GE Healthcare) was used.

Assay [2] addresses T2, cynomolgus monkey FcγRIIa2 extracellular domain with C-terminal His-tag (cynomolgus monkey).
T2 construct: also called cyno FcgRIIa2; cynoFcγRIIa2
T2 chain: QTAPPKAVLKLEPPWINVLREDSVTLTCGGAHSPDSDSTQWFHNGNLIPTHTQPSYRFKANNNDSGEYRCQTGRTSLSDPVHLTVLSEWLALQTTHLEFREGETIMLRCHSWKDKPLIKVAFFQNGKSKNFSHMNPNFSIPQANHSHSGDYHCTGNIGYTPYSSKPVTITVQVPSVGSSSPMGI
The assay can be described thus: SPR (BIACORE); KD of SG1 / KD of variant.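 Also: relative to parent M103205H795-SG1 carrying the SG1 human heavy chain constant region.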

For assay [3], the target named is T3, cynomolgus monkey FcγRIIb extracellular domain with C-terminal His-tag (cynomolgus monkey).
T3 construct: also called cyno FcgRIIb; cynoFcγRIIb
T3 chain: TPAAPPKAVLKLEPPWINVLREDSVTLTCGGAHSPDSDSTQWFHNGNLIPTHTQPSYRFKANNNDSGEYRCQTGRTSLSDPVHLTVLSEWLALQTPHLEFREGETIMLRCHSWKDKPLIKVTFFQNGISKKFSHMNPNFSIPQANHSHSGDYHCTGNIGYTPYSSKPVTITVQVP
The assay can be described thus: SPR (BIACORE); KD of SG1 / KD of variant.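 Also: relative to parent M103205H795-SG1 carrying the SG1 human heavy chain constant region.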

Assay [4] addresses T4, human FcγRIIaR extracellular domain with C-terminal His-tag (human, UniProt P12318 34-217).
T4 construct: also called human FcgRIIaR; FcγRIIa (type R)
T4 chain: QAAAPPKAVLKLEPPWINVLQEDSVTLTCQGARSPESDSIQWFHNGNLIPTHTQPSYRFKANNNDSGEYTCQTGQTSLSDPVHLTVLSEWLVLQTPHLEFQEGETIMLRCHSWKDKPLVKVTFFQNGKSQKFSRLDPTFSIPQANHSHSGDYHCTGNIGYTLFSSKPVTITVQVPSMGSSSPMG
Kind of assay: SPR (BIACORE); KD of SG1 / KD of variant.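 Also: relative to parent M103205H795-SG1 carrying the SG1 human heavy chain constant region.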

The target of assay [5] is T5, human FcγRIIIaV extracellular domain with C-terminal His-tag (human, UniProt P08637 17-208).
T5 construct: also called human FcgRIIIaV
Kind of assay: SPR (BIACORE); KD of SG1 / KD of variant.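 Also: relative to parent M103205H795-SG1 carrying the SG1 human heavy chain constant region.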

For assay [6], the target named is T6, human FcγRIIb extracellular domain with C-terminal His-tag (human, UniProt P31994 43-217).
T6 construct: also called human FcgRIIb
T6 sequence: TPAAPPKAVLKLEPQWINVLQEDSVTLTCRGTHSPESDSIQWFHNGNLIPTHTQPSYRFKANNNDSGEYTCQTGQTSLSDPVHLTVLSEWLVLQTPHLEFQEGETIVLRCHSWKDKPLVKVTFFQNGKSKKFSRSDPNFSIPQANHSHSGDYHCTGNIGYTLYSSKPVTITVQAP
The assay can be described thus: SPR (BIACORE); KD of SG1 / KD of variant.

In assay [7] the target is T7, cynomolgus monkey FcγRIIa3 extracellular domain with C-terminal His-tag (cynomolgus monkey).
T7 construct: also called cyno FcgRIIa3; cynoFcγRIIa3
T7 chain: T2 chain with K127I, N130K, H133P, Q142R
The assay can be described thus: SPR (BIACORE); KD of SG1 / KD of variant.

T5 sequence (P08637 17-208 F176V): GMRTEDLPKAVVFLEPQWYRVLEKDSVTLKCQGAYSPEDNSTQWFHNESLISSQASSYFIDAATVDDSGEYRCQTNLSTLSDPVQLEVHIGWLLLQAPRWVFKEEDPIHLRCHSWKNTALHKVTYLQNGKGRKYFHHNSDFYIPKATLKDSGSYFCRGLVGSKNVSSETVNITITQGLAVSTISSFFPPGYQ

B1: MS1032LO06-SG1 (M103205H795-SG1/M103202L889-SK1) (antibody, human IgG1, kappa)
heavy: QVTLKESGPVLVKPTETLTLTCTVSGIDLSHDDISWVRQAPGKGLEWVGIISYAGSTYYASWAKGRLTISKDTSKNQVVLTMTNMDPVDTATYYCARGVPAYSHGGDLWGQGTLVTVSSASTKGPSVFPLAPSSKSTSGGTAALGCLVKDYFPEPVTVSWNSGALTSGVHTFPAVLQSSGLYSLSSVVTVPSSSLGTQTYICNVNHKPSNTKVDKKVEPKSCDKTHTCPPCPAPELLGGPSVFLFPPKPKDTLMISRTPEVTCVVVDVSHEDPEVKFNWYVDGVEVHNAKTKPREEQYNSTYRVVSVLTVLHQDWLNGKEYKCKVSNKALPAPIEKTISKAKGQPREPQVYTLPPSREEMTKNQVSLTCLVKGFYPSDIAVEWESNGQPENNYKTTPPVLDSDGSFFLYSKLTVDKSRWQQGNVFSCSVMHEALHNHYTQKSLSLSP
light: DIVMTQSPATLSLSPGERATLSCTSSQSVYHANWLSWFQQKPGQPPKLLIYWASTLAYGVPSRFSGSGSGTDFTLTISSLQPEDAATYYCAGGYGGGRYAFGQGTKVEIKRTVAAPSVFIFPPSDEQLKSGTASVVCLLNNFYPREAKVQWKVDNALQSGNSQESVTEQDSKDSTYSLSSTLTLSKADYEKHKVYACEVTHQGLSSPVTKSFNRGEC
notes: Anti-latent myostatin antibody
Take B1: the “biacore IC binding” value in assay [1] was 1 relative to SG1 (=1.00).

B2: MS_M103205H795-SG1/M103202L889-SK1 (antibody, human IgG1, kappa)
heavy: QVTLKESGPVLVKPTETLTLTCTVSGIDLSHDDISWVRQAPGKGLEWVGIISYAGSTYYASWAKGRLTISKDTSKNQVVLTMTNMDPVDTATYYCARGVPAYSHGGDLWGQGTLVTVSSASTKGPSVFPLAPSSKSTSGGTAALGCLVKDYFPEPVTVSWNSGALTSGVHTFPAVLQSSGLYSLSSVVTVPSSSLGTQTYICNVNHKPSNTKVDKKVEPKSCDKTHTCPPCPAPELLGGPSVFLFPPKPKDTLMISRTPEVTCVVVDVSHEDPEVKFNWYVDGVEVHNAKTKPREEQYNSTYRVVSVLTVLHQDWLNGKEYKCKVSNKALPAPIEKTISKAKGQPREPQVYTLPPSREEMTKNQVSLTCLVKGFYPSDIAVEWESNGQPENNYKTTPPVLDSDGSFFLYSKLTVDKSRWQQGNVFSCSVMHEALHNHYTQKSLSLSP
light: B1 light
notes: Parent antibody of the Fc variants; also called MS1032LO06-SG1
In the case of B2, the “KD fold (SG1 = 1)” value in assay [2], in assay [3], in assay [4], in assay [5], in assay [6] and in assay [7] was 1 fold in each case.
